± gives the uncertainty stated by the source.
B1: Transcription elongation factor A N-terminal and central domain-containing protein, residues 30 to 77; numbered along this chain, Q8N8B7 (parent)
chain: LTELETIYVTKEHLQETDVVRAVYRVLKNCPSVALKKKAKCLLSKWKA

Variants of: B1
Assay: abundance fitness (aPCA) (normalised: wild type 0, dead -1); higher = more abundant; growth selection in yeast, the domain comes from the species named
Details: Homo sapiens

LTELETIYVTKEHLQETDVVRCVYRVLKNCPSVALKKKAKCLLSKWKA and LTELETIYVTKEHLQETDVVRAVYRVLKVCPSVALKKKAKCLLSKWKA are within error of each other in abundance fitness: -0.206 ± 0.095 for the first, -0.186 ± 0.075 for the second.

LTELETIYVTKEHLQETDVVRAVYRVLKQCPSVALKKKAKCLLSKWKA and LTELETIYVTKEHLQETDVVRAVYRVLKDCPSVALKKKAKCLLSKWKA are within error of each other in abundance fitness: -0.259 ± 0.15 for the first, -0.193 ± 0.17 for the second.

Going from LTELETIYVTKEHLQETDVVRAVYRVLKECPSVALKKKAKCLLSKWKA to LTELETIYVTKEHLQETDVVRAVYRVLKRCPSVALKKKAKCLLSKWKA, the abundance fitness rises from -0.536 ± 0.12 to 0.144 ± 0.081.

First: LTELETIYVTKEHLQETDVVRAVYRVLKPCPSVALKKKAKCLLSKWKA
Second: LTELETIYVTKEHLQETDVVRAVIRVLKNCPSVALKKKAKCLLSKWKA
The abundance fitness of the first is lower: -0.904 ± 0.17 for the first, 0.105 ± 0.11 for the second.

First: LTELETIYVTKEHLQETDVVRAVWRVLKNCPSVALKKKAKCLLSKWKA
Second: LTELETIYVTKEHLQETDVVRAVYRVLKNWPSVALKKKAKCLLSKWKA
The abundance fitness of the first is higher: 0.406 ± 0.087 for the first, 0.119 ± 0.075 for the second.

LTELETIYVTKEHLQETDVVRAVYRVLKNIPSVALKKKAKCLLSKWKA and LTELETIYVTKEHLQETFVVRAVYRVLKNCPSVALKKKAKCLLSKWKA are within error of each other in abundance fitness: 0.204 ± 0.15 for the first, 0.169 ± 0.17 for the second.

LTELETIYVTKEHLQETCVVRAVYRVLKNCPSVALKKKAKCLLSKWKA and LTELETIYVTKEHLQETVVVRAVYRVLKNCPSVALKKKAKCLLSKWKA are within error of each other in abundance fitness: -0.09 ± 0.19 for the first, -0.094 ± 0.083 for the second.

Compared with LTELETIYVTKEHLQETIVVRAVYRVLKNCPSVALKKKAKCLLSKWKA, LTELETIYVTKEHLQETDVVRAVYRVLKNCPSVALKKKKKCLLSKWKA is lower in abundance fitness: -0.263 ± 0.26 for the first, -0.883 ± 0.35 for the second.

Going from LTELETIYVTKEYLQETDVVRAVYRVLKNCPSVALKKKAKCLLSKWKA to LTELETIYVTKEKLQETDVVRAVYRVLKNCPSVALKKKAKCLLSKWKA, the abundance fitness rises from -0.479 ± 0.073 to 0.106 ± 0.083.

Compared with LTELETIYVTKEHLQETDVCRAVYRVLKNCPSVALKKKAKCLLSKWKA, LTELETIYVTKEHLQETDVYRAVYRVLKNCPSVALKKKAKCLLSKWKA is lower in abundance fitness: -0.034 ± 0.11 for the first, -0.301 ± 0.14 for the second.

LTELETIYVTKEHLQETDVPRAVYRVLKNCPSVALKKKAKCLLSKWKA and LTELETIYVTKEHLQETDVGRAVYRVLKNCPSVALKKKAKCLLSKWKA are within error of each other in abundance fitness: -0.19 ± 0.12 for the first, -0.109 ± 0.086 for the second.

Compared with LTELETHYVTKEHLQETDVVRAVYRVLKNCPSVALKKKAKCLLSKWKA, LTELETEYVTKEHLQETDVVRAVYRVLKNCPSVALKKKAKCLLSKWKA is higher in abundance fitness: -0.212 ± 0.36 for the first, 0.3 ± 0.085 for the second.

Going from LTELETLYVTKEHLQETDVVRAVYRVLKNCPSVALKKKAKCLLSKWKA to LTELETMYVTKEHLQETDVVRAVYRVLKNCPSVALKKKAKCLLSKWKA, the abundance fitness rises from -0.07 ± 0.079 to 0.244 ± 0.11.

First: LTELETVYVTKEHLQETDVVRAVYRVLKNCPSVALKKKAKCLLSKWKA
Second: LTELETIYVTKEHLQETDSVRAVYRVLKNCPSVALKKKAKCLLSKWKA
The abundance fitness of the first is higher: 0.006 ± 0.072 for the first, -0.481 ± 0.1 for the second.

LTELETIYVTKEHLQETDPVRAVYRVLKNCPSVALKKKAKCLLSKWKA and LTELETIYVTKEHLQETDYVRAVYRVLKNCPSVALKKKAKCLLSKWKA are within error of each other in abundance fitness: -0.261 ± 0.13 for the first, -0.595 ± 0.21 for the second.

LTELETIYVTKEHLQETDVVRAVYRVLKNCPSVASKKKAKCLLSKWKA and LTELHTIYVTKEHLQETDVVRAVYRVLKNCPSVALKKKAKCLLSKWKA are within error of each other in abundance fitness: -0.8 ± 0.37 for the first, -0.346 ± 0.18 for the second.

Going from LTELRTIYVTKEHLQETDVVRAVYRVLKNCPSVALKKKAKCLLSKWKA to LTELATIYVTKEHLQETDVVRAVYRVLKNCPSVALKKKAKCLLSKWKA, the abundance fitness rises from -0.769 ± 0.1 to -0.235 ± 0.12.

LTELDTIYVTKEHLQETDVVRAVYRVLKNCPSVALKKKAKCLLSKWKA and LTELETIYVTKEHLQETDVVRAVYRVLKNCPSVALKKKAKCLLSKWKT are within error of each other in abundance fitness: -0.186 ± 0.12 for the first, 0.162 ± 0.24 for the second.

LTELETIYVTKEHLQETDVVRAVYRQLKNCPSVALKKKAKCLLSKWKA and LTELETIYVTKEHLQETDVVRAVYRVVKNCPSVALKKKAKCLLSKWKA are within error of each other in abundance fitness: -0.183 ± 0.27 for the first, -0.445 ± 0.091 for the second.

LTELETIYVTKEHLQETDVVRAVYRVAKNCPSVALKKKAKCLLSKWKA and LTELETIYVTKEHLQETDVVRAVYRVFKNCPSVALKKKAKCLLSKWKA are within error of each other in abundance fitness: -0.593 ± 0.11 for the first, -0.754 ± 0.27 for the second.

Compared with LTELETIYVTKEHLQETDVVRAVYRVGKNCPSVALKKKAKCLLSKWKA, LTELETIYVTKEHLQETDVVRAVYRVLKNCPSVPLKKKAKCLLSKWKA is higher in abundance fitness: -0.88 ± 0.094 for the first, -0.378 ± 0.12 for the second.

LTELETIYVTKEHLQETDVVRAVYRVLKNCPSVKLKKKAKCLLSKWKA and LTELETIYVTKEHLQETDVVRAVYRVLKNCPSVALKKKAKGLLSKWKA are within error of each other in abundance fitness: 0.148 ± 0.1 for the first, 0.025 ± 0.083 for the second.

Going from LTELETIYVTKEHLQETDVVRAVYRVLKNCPSVALKKKAKYLLSKWKA to LYELETIYVTKEHLQETDVVRAVYRVLKNCPSVALKKKAKCLLSKWKA, the abundance fitness rises from -0.558 ± 0.16 to -0.078 ± 0.18.

First: LSELETIYVTKEHLQETDVVRAVYRVLKNCPSVALKKKAKCLLSKWKA
Second: LQELETIYVTKEHLQETDVVRAVYRVLKNCPSVALKKKAKCLLSKWKA
The abundance fitness of the first is higher: 0.198 ± 0.11 for the first, -0.177 ± 0.11 for the second.

Compared with LFELETIYVTKEHLQETDVVRAVYRVLKNCPSVALKKKAKCLLSKWKA, LGELETIYVTKEHLQETDVVRAVYRVLKNCPSVALKKKAKCLLSKWKA is higher in abundance fitness: -0.483 ± 0.2 for the first, -0.078 ± 0.12 for the second.

First: LTELETIYVTKEHLQETDVVRAVYRVLKNCPSQALKKKAKCLLSKWKA
Second: LTELETIYVTKEHLQETDVVRAVYRVLKNCPSYALKKKAKCLLSKWKA
The abundance fitness of the first is higher: 0.007 ± 0.097 for the first, -0.327 ± 0.16 for the second.

LTELETIYVTKEHLQETDVVRAVYRVLKNCPSDALKKKAKCLLSKWKA and LTELETICVTKEHLQETDVVRAVYRVLKNCPSVALKKKAKCLLSKWKA are within error of each other in abundance fitness: -0.086 ± 0.11 for the first, -0.489 ± 0.38 for the second.
